Source: PMC11481384, “Ponicidin Promotes Hepatocellular Carcinoma Mitochondrial Apoptosis by Stabilizing Keap1‐PGAM5 Complex” (Advanced Science, 2024)

Molecular target: T1, Keap1 Kelch domain (amino acid residues 309 to 624) (human, UniProt Q14145 309-624)
T1 construct: Keap1, Kelch domain, Gene ID 9817 (the human gene), amino acid residues 309 to 624; The species is not put in words; it follows from the printed Gene ID 9817; also called Kelch domain of Keap1; source: E. coli BL21 (Codonplus), purified (Ni-NTA, HiTrap QHP, Superdex 200 Increase)
Test: native gel or EMSA; purified Kelch, Δ54‐PGAM5 and ponicidin incubated on ice for 30 min; 7% non‐denatured gel, 4 °C, 90 V, 1 h; Coomassie staining
Conditions: both partners purified

T1 sequence (Q14145 309-624): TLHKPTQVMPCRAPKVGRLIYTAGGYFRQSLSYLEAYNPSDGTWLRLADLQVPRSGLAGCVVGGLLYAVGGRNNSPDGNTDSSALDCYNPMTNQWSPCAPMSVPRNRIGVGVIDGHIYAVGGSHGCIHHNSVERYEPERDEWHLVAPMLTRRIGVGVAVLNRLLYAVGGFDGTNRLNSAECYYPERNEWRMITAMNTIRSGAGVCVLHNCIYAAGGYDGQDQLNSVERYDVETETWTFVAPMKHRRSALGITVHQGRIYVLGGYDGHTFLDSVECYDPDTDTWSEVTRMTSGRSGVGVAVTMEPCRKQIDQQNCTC

B1: ∆54‐PGAM5 (amino acids from number 54 to 289) (domain or fragment, human, UniProt Q96HS1 54-289, looked up)
chain: GPGVWDPNWDRREPLSLINVRKRNVESGEEELASKLDHYKAKATRHIFLIRHSQYHVDGSLEKDRTLTPLGREQAELTGLRLASLGLKFNKIVHSSMTRAIETTDIISRHLPGVCKVSTDLLREGAPIEPDPPVSHWKPEAVQYYEDGARIEAAFRNYIHRADARQEEDSYEIFICHANVIRYIVCRALQFPPEGWLRLSLNNGSITHLVIRPNGRVALRTLGDTGFMPPDKITRS
notes: PGAM5, Gene ID 192111 (the human gene), amino acid residues 54 to 289; The species is not put in words; it follows from the printed Gene ID 192111; also called Δ54‐PGAM5; PGAM5 domain; source: E. coli BL21 (Codonplus), purified (Ni-NTA, HiTrap QHP, Superdex 200 Increase)
binding result: binds
